The values that follow are results of earlier work, collected in publication PMC3505014.

One data set concerns the target NRXN1β ECD (UniProt P58400). Briefly: surface plasmon resonance.
The target in the next data set is Cbln1 (UniProt P23435). In words: surface plasmon resonance.

Chain of Cbln1 (P23435 22-193): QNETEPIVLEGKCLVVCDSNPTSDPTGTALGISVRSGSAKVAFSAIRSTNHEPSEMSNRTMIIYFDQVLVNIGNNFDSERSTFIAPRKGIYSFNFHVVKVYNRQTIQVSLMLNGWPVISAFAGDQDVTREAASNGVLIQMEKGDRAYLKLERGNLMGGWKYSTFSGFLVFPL
Chain of UniProt P58400 (P58400 51-396): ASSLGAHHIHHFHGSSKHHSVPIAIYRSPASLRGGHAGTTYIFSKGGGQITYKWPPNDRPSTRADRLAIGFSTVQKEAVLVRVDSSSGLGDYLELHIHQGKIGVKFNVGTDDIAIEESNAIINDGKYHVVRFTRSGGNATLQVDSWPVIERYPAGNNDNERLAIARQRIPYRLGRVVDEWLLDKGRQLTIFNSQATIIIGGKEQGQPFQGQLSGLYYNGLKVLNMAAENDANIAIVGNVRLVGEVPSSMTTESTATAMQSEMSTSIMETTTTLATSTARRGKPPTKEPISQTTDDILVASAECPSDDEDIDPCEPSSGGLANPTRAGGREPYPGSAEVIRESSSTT

Regarding Cbln1 (from UniProt P23435), the Kd with NRXN1β ECD was 0.17 nM.

As for GluRδ2 (from UniProt O43424), in the data set with Cbln1, the Kd is 16.5 nM.
